According to article PMC10820826, “Interrogation and validation of the interactome of neuronal Munc18-interacting Mint proteins with AlphaFold2” (The Journal of Biological Chemistry, 2023):

How the values were obtained:
Munc18-1-His (rat) = Munc18-1-His (rat) (UniProt P61765)
[1] = target: Munc18-1 + Mint1 (rat | human) (UniProt P61765); test: ITC

Row | Kd (Munc18-1-His (rat)) | dH (Munc18-1-His (rat)) | stoichiometry N (Munc18-1-His (rat)) | dH [1] | Substance
1 | 216 µM | -241 kJ/mol | 1 | – | Mint1_14 peptide (261-282 A275A/E276A)
2 | – | – | – | -124 kJ/mol | Rat Sx1a (Sx1(1-261)-His) (from UniProt P32851 1-261) (domain or fragment)
